What was measured:
[1] = target: PDL1 on PDL1 aAPC/CHOK1 cells (UniProt Q9NZQ7 19-290, limits assumed); test: cell-based or functional assay
[2] = target: T1, PDL1 expressed on MDA MB-231 human breast cancer cells (human, UniProt Q9NZQ7 19-290); test: flow cytometry on MDA MB-231 cells, anti-human IgG Fc secondary antibody
T1 construct: whole, on cells; also called MDA MB-231 cells

[3] = target: T2, human PD-L1 (recombinant protein, coated and in solution in the phage ELISA) (human, UniProt Q9NZQ7 19-239); test: competitive phage ELISA, ratio to 12A4 parent clone
T2 construct: It is probably the same Met1-Thr239 extracellular segment that was used for selection; also called CD274; B7 homolog 1

[4] = target: T2, human PD-L1 (recombinant protein, …); test: competitive phage ELISA, Fab on phage, soluble PD-L1 against coated PD-L1

Binder | EC50, luminescent signal in PDL1/PD1 blockage bioassay [1] | Kd [2] | Improvement from 12A4 Parent Clone [3] | Kd [4]
anti-PDL1 monoclonal antibody 12A4bad (antibody, V domains shown, also called PDL1 antibody 12A4bad) VH: QVQLVQSGAEVKKPGSSVKVSCKTSGDTFSTYAISWVRQAPGQGLEWMGGIIPLFGKAHYAQKFQGRVTITADESTSTAYMELSSLRSEDTAVYFCARKFHFVRGSPFGMDVWGQGTTVTVSS VL: EIVLTQSPATLSLSPGERATLSCRASQSVSSYLAWYQQKPGQAPRLLIYDASNRAPGIPARFSGSGSGTDFTLTISSLEPEDFAVYYCQQRSNWPTFGQGTKVEIK | 0.344 nM | 0.0778 nM | – | –
12A4bad Fab displayed on phage (Fab, V domains shown) VH: QVQLVQSGAEVKKPGSSVKVSCKTSGDTFSTYAISWVRQAPGQGLEWMGGIIPLFGKAHYAQKFQGRVTITADESTSTAYMELSSLRSEDTAVYFCARKFHFVRGSPFGMDVWGQGTTVTVSS VL: EIVLTQSPATLSLSPGERATLSCRASQSVSSYLAWYQQKPGQAPRLLIYDASNRAPGIPARFSGSGSGTDFTLTISSLEPEDFAVYYCQQRSNWPTFGQGTKVEIK | – | – | 7.5 fold | 1.5 nM
12A4a Fab displayed on phage (Fab, V domains shown) VH: QVQLVQSGAEVKKPGSSVKVSCKTSGDTFSTYAISWVRQAPGQGLEWMGGIIPIFGKAHYAQKFQGRVTITADESTSTAYMELSSLRSEDTAVYFCARKFHFVSGSPFGMDVWGQGTTVTVSS VL: EIVLTQSPATLSLSPGERATLSCRASQSVSSYLAWYQQKPGQAPRLLIYDASNRAPGIPARFSGSGSGTDFTLTISSLEPEDFAVYYCQQRSNWPTFGQGTKVEIK | – | – | 1.3 fold | 8.3 nM
12A4bd Fab displayed on phage (Fab, V domains shown) VH: QVQLVQSGAEVKKPGSSVKVSCKTSGDTFSTYAISWVRQAPGQGLEWMGGIIPLFGKAHYAQKFQGRVTITADESTSTAYMELSSLRSEDTAVYFCARKFHFVRGSPFGMDVWGQGTTVTVSS VL: not shown | – | – | 6.3 fold | 1.8 nM
12A4b Fab displayed on phage (Fab, V domains shown) VH: QVQLVQSGAEVKKPGSSVKVSCKTSGDTFSTYAISWVRQAPGQGLEWMGGIIPIFGKAHYAQKFQGRVTITADESTSTAYMELSSLRSEDTAVYFCARKFHFVRGSPFGMDVWGQGTTVTVSS VL: not shown | – | – | 3.3 fold | –
12A4ad Fab displayed on phage (Fab, V domains shown) VH: QVQLVQSGAEVKKPGSSVKVSCKTSGDTFSTYAISWVRQAPGQGLEWMGGIIPLFGKAHYAQKFQGRVTITADESTSTAYMELSSLRSEDTAVYFCARKFHFVSGSPFGMDVWGQGTTVTVSS VL: EIVLTQSPATLSLSPGERATLSCRASQSVSSYLAWYQQKPGQAPRLLIYDASNRAPGIPARFSGSGSGTDFTLTISSLEPEDFAVYYCQQRSNWPTFGQGTKVEIK | – | – | – | 5 nM
